Experimental data taken from patent US20250066509A1 (SHANGHAI JMT BIO TECHNOLOGY, published 2025).
Numbering of substitutions follows the chain as printed. Read-outs that look alike come from different tables or passages of the source. One block for each binder: values may come before it.

Tests used:
[1] = target: T1, cynomolgus monkey FGFR1c/βKlotho receptor (cynomolgus monkey, UniProt A0A2K5WB58 1-1044); assay: cell-based or functional assay
[2] = target: T2, human αKlotho extracellular segment protein (human, UniProt Q9UEF7 34-981); assay: ELISA; extracellular segment protein on nickel-coated plate, antibody titrated, anti-human IgG Fab-HRP
T2 construct: extracellular domain
T2 sequence (looked up): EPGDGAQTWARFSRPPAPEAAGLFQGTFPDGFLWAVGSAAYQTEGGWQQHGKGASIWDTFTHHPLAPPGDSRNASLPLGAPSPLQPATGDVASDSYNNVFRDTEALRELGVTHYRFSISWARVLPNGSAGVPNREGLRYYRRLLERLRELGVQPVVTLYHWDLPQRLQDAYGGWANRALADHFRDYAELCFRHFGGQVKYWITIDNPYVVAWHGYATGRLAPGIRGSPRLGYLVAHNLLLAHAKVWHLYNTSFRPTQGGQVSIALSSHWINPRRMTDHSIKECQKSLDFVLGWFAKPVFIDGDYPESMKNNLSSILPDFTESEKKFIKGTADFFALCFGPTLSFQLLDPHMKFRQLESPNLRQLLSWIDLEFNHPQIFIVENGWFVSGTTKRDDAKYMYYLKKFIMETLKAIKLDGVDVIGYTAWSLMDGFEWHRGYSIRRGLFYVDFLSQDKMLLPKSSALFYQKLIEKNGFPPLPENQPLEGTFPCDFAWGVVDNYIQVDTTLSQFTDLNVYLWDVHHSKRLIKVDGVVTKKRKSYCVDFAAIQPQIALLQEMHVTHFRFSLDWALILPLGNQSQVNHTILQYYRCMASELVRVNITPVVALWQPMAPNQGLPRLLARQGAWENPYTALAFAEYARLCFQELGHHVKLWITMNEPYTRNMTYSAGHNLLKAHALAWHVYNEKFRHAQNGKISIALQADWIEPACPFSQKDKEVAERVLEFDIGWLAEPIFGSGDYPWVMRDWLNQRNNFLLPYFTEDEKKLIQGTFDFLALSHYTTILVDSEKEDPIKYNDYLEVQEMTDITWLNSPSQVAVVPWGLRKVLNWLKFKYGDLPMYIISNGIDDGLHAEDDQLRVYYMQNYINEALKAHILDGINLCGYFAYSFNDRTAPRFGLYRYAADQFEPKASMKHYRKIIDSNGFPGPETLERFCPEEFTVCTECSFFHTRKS
Protocol: In this Example, the binding of some antibodies in Example 1 to human βKlotho, human αKlotho, and mouse βKlotho was detected using an ELISA assay as described below. A solution of human βKlotho (R&D systems), human αKlotho (R&D systems), or mouse βKlotho (R&D systems) extracellular segment protein at a specified concentration was added to a nickel-coated 96-well plate (Pierce) and the plate was incubated overnight at room temperature. The next day, the plate was blocked with PBS/1% BSA, and then antibodies at various concentrations were added to the wells. After incubating the plate for 1.5 hours at room temperature, a HRP-labeled anti-human IgG Fab secondary antibody was added to the wells and the plate was incubated for 30 minutes at room temperature. After the substrate was added and reacted at room temperature for 15 minutes, the reaction-stopping solution was added. OD₄₅₀ values were read. Exemplary data of antibodies' binding to human βKlotho, human αKlotho, and mouse βKlotho in the ELISA assay are as follows.

[3] = target: T1, cynomolgus monkey FGFR1c/βKlotho …; assay: cell-based or functional assay; remark: listed apart in the source
[4] = target: T1, cynomolgus monkey FGFR1c/βKlotho …; assay: cell-based or functional assay; remark: listed apart in the source
[5] = target: human FGFR4/βKlotho receptor (human, UniProt P22455 22-802); assay: cell-based or functional assay
human FGFR4/βKlotho receptor, sequence (P22455 22-802, chain 1 of 2): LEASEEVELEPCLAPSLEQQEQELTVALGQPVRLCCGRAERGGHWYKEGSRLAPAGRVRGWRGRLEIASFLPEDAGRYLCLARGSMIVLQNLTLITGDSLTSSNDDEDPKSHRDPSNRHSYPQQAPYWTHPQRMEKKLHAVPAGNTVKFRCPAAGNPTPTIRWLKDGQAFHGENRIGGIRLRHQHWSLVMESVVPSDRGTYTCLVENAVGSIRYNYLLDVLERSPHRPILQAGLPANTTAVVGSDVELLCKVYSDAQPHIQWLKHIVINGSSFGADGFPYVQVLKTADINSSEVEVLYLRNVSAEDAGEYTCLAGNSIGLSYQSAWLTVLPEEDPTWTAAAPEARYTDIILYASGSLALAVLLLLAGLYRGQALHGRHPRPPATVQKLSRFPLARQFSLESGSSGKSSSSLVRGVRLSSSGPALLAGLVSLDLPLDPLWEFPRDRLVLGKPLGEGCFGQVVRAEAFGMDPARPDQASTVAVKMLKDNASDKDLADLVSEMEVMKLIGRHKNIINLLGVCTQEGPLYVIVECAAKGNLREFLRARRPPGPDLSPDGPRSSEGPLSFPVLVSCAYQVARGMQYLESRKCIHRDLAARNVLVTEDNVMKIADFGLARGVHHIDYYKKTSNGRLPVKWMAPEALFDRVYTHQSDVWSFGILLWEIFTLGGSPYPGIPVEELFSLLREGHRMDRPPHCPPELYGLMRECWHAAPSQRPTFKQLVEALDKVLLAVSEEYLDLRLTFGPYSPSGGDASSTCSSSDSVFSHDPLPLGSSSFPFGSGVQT
human FGFR4/βKlotho receptor, sequence (chain, as listed by the source, chain 2 of 2): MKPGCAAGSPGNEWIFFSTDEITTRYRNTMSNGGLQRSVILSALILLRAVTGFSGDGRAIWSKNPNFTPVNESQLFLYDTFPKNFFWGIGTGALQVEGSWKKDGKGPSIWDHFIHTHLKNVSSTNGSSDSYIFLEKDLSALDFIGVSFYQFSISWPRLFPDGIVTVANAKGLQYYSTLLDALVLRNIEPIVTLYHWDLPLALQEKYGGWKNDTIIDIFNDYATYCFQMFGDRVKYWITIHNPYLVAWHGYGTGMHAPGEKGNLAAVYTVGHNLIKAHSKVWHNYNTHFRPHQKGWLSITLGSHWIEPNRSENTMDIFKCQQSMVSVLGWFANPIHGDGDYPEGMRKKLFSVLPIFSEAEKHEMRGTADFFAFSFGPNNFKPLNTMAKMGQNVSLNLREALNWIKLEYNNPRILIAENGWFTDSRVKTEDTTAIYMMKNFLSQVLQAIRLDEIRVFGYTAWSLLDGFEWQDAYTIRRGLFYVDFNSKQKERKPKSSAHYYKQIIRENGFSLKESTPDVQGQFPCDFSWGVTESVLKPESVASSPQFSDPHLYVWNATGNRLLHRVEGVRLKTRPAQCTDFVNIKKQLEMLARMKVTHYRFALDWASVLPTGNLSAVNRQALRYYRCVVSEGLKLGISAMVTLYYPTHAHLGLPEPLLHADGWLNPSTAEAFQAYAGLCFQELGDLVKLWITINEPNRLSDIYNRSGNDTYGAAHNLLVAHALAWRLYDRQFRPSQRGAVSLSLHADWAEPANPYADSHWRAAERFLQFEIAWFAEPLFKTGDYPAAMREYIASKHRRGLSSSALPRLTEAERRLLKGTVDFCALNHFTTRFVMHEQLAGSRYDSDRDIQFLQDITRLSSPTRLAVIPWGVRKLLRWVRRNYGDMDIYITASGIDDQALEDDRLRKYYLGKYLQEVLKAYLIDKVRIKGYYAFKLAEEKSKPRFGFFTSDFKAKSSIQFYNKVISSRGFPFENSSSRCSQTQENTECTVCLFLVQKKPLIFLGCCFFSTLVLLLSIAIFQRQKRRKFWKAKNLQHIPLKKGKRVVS

[6] = target: T3, human βKlotho extracellular segment protein (human, UniProt Q86Z14 53-996); assay: Gator BLI; antibody captured on Protein A probe, human βKlotho ECD 400 nM-50 nM in solution
T3 construct: Captured by nickel plate or anti-His antibody, so His-tagged; also called human βKlotho extracellular protein
T3 sequence: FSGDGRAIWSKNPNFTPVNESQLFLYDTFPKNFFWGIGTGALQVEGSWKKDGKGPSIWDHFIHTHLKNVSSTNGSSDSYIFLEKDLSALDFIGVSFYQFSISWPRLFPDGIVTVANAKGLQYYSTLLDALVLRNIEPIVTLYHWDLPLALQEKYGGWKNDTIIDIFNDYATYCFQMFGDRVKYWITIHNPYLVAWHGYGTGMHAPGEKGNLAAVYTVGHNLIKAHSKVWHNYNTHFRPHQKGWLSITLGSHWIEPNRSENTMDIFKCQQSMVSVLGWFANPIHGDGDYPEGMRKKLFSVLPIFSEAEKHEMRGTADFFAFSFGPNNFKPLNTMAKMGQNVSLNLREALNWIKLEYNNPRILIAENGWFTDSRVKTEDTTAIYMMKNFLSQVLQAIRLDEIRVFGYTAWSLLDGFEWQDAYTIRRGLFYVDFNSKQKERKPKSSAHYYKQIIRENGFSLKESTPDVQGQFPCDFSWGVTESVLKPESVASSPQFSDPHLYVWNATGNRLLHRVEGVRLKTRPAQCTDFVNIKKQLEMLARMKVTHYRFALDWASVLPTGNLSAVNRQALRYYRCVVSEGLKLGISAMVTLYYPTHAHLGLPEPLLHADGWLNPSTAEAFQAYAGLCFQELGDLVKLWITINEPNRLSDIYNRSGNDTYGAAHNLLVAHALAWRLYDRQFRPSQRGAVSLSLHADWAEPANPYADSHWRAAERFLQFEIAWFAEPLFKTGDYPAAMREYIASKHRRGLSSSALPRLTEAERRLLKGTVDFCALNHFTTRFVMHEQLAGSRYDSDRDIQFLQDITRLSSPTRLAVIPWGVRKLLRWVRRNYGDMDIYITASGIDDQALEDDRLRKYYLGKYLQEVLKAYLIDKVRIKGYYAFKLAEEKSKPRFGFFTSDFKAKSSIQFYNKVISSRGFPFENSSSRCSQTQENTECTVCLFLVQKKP
Protocol: The antibodies described above were tested for affinity using Gator (Gator bio). Briefly, an antibody was first captured using a probe coated with Protein A (Gator bio). After the baseline was monitored for 60 seconds, the antibody-to-the antigen binding was determined with the human βKlotho extracellular segment protein described above at varying concentrations (400 nM-50 nM). Then, the dissociation was detected in a K buffer (Gator bio). Meanwhile, the function of an antibody to activate the human or cynomolgus monkey FGFR1c/βKlotho receptor was detected using the reporter-based assay described in Example 2.

T1 sequence (A0A2K5WB58 entry or part of it): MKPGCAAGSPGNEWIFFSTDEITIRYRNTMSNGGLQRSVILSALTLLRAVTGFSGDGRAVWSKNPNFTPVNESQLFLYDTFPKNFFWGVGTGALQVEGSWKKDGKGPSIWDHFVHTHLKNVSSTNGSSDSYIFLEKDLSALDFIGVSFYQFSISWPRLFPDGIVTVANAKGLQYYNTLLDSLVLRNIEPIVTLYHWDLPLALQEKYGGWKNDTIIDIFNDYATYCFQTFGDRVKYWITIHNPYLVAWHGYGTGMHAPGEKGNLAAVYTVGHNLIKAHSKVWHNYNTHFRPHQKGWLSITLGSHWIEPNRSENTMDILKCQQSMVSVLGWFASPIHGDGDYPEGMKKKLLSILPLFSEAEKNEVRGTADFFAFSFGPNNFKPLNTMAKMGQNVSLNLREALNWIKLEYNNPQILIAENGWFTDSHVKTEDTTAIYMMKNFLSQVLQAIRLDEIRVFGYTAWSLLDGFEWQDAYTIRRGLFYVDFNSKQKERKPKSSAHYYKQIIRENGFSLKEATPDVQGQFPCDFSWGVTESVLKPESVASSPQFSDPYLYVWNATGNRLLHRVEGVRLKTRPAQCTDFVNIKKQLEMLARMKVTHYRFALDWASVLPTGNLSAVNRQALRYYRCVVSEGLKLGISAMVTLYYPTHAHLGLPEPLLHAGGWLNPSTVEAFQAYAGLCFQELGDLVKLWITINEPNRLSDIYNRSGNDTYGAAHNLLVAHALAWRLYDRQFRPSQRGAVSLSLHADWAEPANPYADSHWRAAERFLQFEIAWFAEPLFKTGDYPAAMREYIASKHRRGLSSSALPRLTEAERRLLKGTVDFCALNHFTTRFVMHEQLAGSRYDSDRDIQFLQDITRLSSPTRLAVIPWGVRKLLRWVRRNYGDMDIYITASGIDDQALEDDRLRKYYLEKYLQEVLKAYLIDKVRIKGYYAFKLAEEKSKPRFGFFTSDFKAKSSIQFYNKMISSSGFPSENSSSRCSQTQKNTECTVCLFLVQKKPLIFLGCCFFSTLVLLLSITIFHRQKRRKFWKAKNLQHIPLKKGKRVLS

- EC50, luciferase reporter-based assay (receptor activation) [4]: 170 pM
- EC50, luciferase reporter-based assay (receptor activation) [5]: > 100000 pM
B2: CB-8-42 (antibody, human IgG1, kappa, V domains shown)
VH: EVQLVQSGAEVKKPGASVKVSCKASGYTFTSYGISWVRQAPGQGLEWMGWISAYSGNTNYAQKLQGRVTMTTDTSTSTAYMELRSLRSDDTAVYYCATLLPSGSLYYWGQGTLVTVSS
VL: DIVMTQSPSSLSAPVGDRVTITCQASQDIRNYINWFQQKPGKAPKLLIYAASYLQSGVPSRFSGSGSGTDFTLTISSLQPEDFATYYCQQSYSTPQWTFGQGTKVEIKR

- EC50 for antibody-induced cell activation, as determined by the reporter-based assay [3]: 540 pM
B5: CB-8-37 (antibody, human IgG1, V domains shown)
VH: B2 VH with T28A, L100Y, P101G
VL: DIVMTQSPSSLSAPVGDRVTITCQASQDIRNYINWFQQKPGKAPKLLIYAASFLQSGVPSRFSGSGSGTDFTLTISSLQPEDFATYYCQQSYSTPQWTFGQGTKVEIK

- EC50 for antibody-induced cell activation, as determined by the reporter-based assay [3]: 150 pM
B6: CB-8-24 (antibody, V domains shown)
VH: B2 VH with S55N
VL: B5 VL with F53S

- EC50 for antibody-induced cell activation, as determined by the reporter-based assay [3]: 880 pM
B7: CB-8-13 (antibody, human IgG1, V domains shown)
VH: B2 VH with T28R, S55N, N57R, L100Y, P101G
VL: B5 VL with F53R

- EC50 for antibody-induced cell activation, as determined by the reporter-based assay [3]: 1080 pM
B8: CB-8-14 (antibody, human IgG1, V domains shown)
VH: B2 VH with T30R, S55T, L100Y, P101G
VL: B5 VL with F53S, L54R

The remaining lines, values behind:

B1: CB-8 (antibody, V domains shown)
VH: B2 VH with S55N, L100Y, P101G
VL: B5 VL with F53S
- EC50, luciferase reporter-based assay (receptor activation) [1]: 4890 pM
- EC50 [2]: > 100000 pM
- EC50 for antibody-induced cell activation, as determined by the reporter-based assay [3]: 2860 pM

B3: CB-8-23 (antibody, human IgG1, V domains shown)
VH: B2 VH with Y32G, S55N, N57R, L100Y, P101G
VL: B5 VL
- Kd [6]: 7080 pM
- koff [6]: 0.000173 s⁻¹
- kon [6]: 24500 M⁻¹ s⁻¹
- EC50 for antibody-induced cell activation, as determined by the reporter-based assay [3]: 550 pM

B4: CB-8-41 (antibody, human IgG1, V domains shown)
VH: B2 VH with T28L, S55T, L100Y, P101G
VL: B5 VL with F53H
- EC50 for antibody-induced cell activation, as determined by the reporter-based assay [3]: 1570 pM

B9: CB-8-40 (antibody, human IgG1, V domains shown)
VH: B2 VH with L100Y, P101G
VL: B5 VL with F53Y
- EC50 for antibody-induced cell activation, as determined by the reporter-based assay [3]: 490 pM

B10: CB-8-26 (antibody, human IgG1, V domains shown)
VH: B2 VH with T30K, S55N, N57R, L100Y, P101G
VL: B5 VL with F53G
- EC50 for antibody-induced cell activation, as determined by the reporter-based assay [3]: 710 pM
